# Measurements as given in the supplement of paper PMC9112550, “Optimization of the antimicrobial peptide Bac7 by deep mutational scanning” (BMC Biology, 2022).
# Test system: Escherichia coli TOP10
# Experiment: shrunken log2 fold change of peptide-encoding DNA abundance (4.5 h post-induction vs induction); higher = less antimicrobial activity (less host growth inhibition)
# Conditions: time post-induction: 4.5 h; library: site-saturation at positions 5, 18, 19, 20
# 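Note: peptides expressed intracellularly from a pBAD plasmid library in pooled LB shake-flask culture, induced with 0.3% L-arabinose, DNA abundance read by NGS, three biological replicates, DESeq2 with apeglm shrinkage.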
row,Sequence,shrunken log2 fold change
1,RRIRWRPPRLPRPRPRPMQVPRP,-0.0191
2,RRIRLRPPRLPRPRPRPAAFPRP,0.184
3,RRIRRRPPRLPRPRPRPLFGPRP,0.649
4,RRIRGRPPRLPRPRPRPLGRPRP,0.599
5,RRIRYRPPRLPRPRPRPNIEPRP,-0.801
6,RRIRIRPPRLPRPRPRPLVGPRP,-0.0442
7,RRIRMRPPRLPRPRPRPTVSPRP,0.0176
8,RRIRLRPPRLPRPRPRPKCEPRP,0.0288
9,RRIRKRPPRLPRPRPRPEVCPRP,0.0227
10,RRIRKRPPRLPRPRPRPCVCPRP,0.0462
11,RRIRDRPPRLPRPRPRPVANPRP,-0.0229
12,RRIRFRPPRLPRPRPRPCIRPRP,-0.0335
13,RRIRARPPRLPRPRPRPPSPPRP,0.669
14,RRIRIRPPRLPRPRPRPWLPPRP,-0.325
15,RRIRPRPPRLPRPRPRPVTEPRP,-0.027
16,RRIRTRPPRLPRPRPRPLQGPRP,0.12
17,RRIRGRPPRLPRPRPRPVGGPRP,0.897
18,RRIRERPPRLPRPRPRPIWSPRP,0.0428
19,RRIRPRPPRLPRPRPRPKDCPRP,0.107
20,RRIRDRPPRLPRPRPRPHDKPRP,0.0278
21,RRIRERPPRLPRPRPRPIPQPRP,0.13
22,RRIRIRPPRLPRPRPRPEEHPRP,0.023
23,RRIRQRPPRLPRPRPRPYMYPRP,-0.0364
24,RRIRNRPPRLPRPRPRPGHQPRP,-0.0155
25,RRIRQRPPRLPRPRPRPAHWPRP,0.261

row,Sequence,shrunken log2 fold change
1,RRIRSRPPRLPRPRPRPSQIPRP,-0.0773
2,RRIRARPPRLPRPRPRPKSDPRP,0.239
3,RRIRDRPPRLPRPRPRPQAEPRP,-0.129
4,RRIRKRPPRLPRPRPRPEGTPRP,0.0154
5,RRIRLRPPRLPRPRPRPQAQPRP,0.0698
6,RRIRTRPPRLPRPRPRPNPDPRP,-0.0402
7,RRIRERPPRLPRPRPRPVWQPRP,0.123
8,RRIRTRPPRLPRPRPRPWVIPRP,0.0147
9,RRIRARPPRLPRPRPRPRSTPRP,0.295
10,RRIRWRPPRLPRPRPRPLWVPRP,0.0766
11,RRIRIRPPRLPRPRPRPCGEPRP,-0.0104
12,RRIRMRPPRLPRPRPRPTGPPRP,0.388
13,RRIRVRPPRLPRPRPRPTDRPRP,-0.00137
14,RRIRGRPPRLPRPRPRPTPDPRP,1.24
15,RRIRARPPRLPRPRPRPARLPRP,0.582
16,RRIRTRPPRLPRPRPRPVELPRP,-0.0533
17,RRIRLRPPRLPRPRPRPAHWPRP,0.608
18,RRIRYRPPRLPRPRPRPYSTPRP,-0.648
19,RRIRKRPPRLPRPRPRPFTPPRP,0.0993
20,RRIRKRPPRLPRPRPRPTKLPRP,0.246
21,RRIRSRPPRLPRPRPRPQDYPRP,-0.356
22,RRIRQRPPRLPRPRPRPPCGPRP,0.184
23,RRIRWRPPRLPRPRPRPMSRPRP,0.063
24,RRIRRRPPRLPRPRPRPSGVPRP,-0.181
25,RRIRFRPPRLPRPRPRPCKWPRP,-0.0168

row,Sequence,shrunken log2 fold change
1,RRIRERPPRLPRPRPRPDWQPRP,-0.552
2,RRIRLRPPRLPRPRPRPLERPRP,-0.000861
3,RRIRMRPPRLPRPRPRPYLKPRP,-0.00107
4,RRIRYRPPRLPRPRPRPMWNPRP,-0.302
5,RRIRSRPPRLPRPRPRPHAVPRP,0.0594
6,RRIRERPPRLPRPRPRPMTWPRP,0.0575
7,RRIRLRPPRLPRPRPRPKVQPRP,0.22
8,RRIRCRPPRLPRPRPRPVGIPRP,-0.24
9,RRIRQRPPRLPRPRPRPRIKPRP,0.127
10,RRIRLRPPRLPRPRPRPPYWPRP,0.106
11,RRIRCRPPRLPRPRPRPQVCPRP,-0.203
12,RRIRQRPPRLPRPRPRPRSFPRP,-0.0281
13,RRIRHRPPRLPRPRPRPFFHPRP,-0.454
14,RRIRGRPPRLPRPRPRPQEPPRP,0.134
15,RRIRDRPPRLPRPRPRPAIDPRP,0.336
16,RRIRVRPPRLPRPRPRPWRAPRP,0.414
17,RRIRLRPPRLPRPRPRPCEIPRP,0.0237
18,RRIRFRPPRLPRPRPRPIDQPRP,-0.296
19,RRIRFRPPRLPRPRPRPPLQPRP,0.353
20,RRIRHRPPRLPRPRPRPQLFPRP,-0.172
21,RRIRKRPPRLPRPRPRPQQKPRP,0.206
22,RRIRTRPPRLPRPRPRPEQDPRP,0.0235
23,RRIRQRPPRLPRPRPRPCCIPRP,-0.159
24,RRIRRRPPRLPRPRPRPYGHPRP,-0.198
25,RRIRMRPPRLPRPRPRPVQTPRP,0.0257

row,Sequence,shrunken log2 fold change
1,RRIRGRPPRLPRPRPRPDKRPRP,0.767
2,RRIRARPPRLPRPRPRPPTDPRP,0.839
3,RRIRMRPPRLPRPRPRPDVDPRP,0.104
4,RRIRERPPRLPRPRPRPTIRPRP,-0.622
5,RRIRHRPPRLPRPRPRPFKWPRP,-0.0376
6,RRIRWRPPRLPRPRPRPMASPRP,0.659
7,RRIRIRPPRLPRPRPRPRQNPRP,-0.459
8,RRIRMRPPRLPRPRPRPTAFPRP,0.206
9,RRIRTRPPRLPRPRPRPMCPPRP,-0.017
10,RRIRKRPPRLPRPRPRPHLFPRP,0.205
11,RRIRGRPPRLPRPRPRPMWHPRP,0.441
12,RRIRTRPPRLPRPRPRPRVEPRP,0.073
13,RRIRPRPPRLPRPRPRPFMWPRP,-0.168
14,RRIRLRPPRLPRPRPRPQCHPRP,0.0598
15,RRIRQRPPRLPRPRPRPPSNPRP,-0.481
16,RRIRKRPPRLPRPRPRPGHGPRP,0.16
17,RRIRNRPPRLPRPRPRPSQYPRP,-0.268
18,RRIRHRPPRLPRPRPRPADHPRP,0.134
19,RRIRWRPPRLPRPRPRPTTDPRP,0.449
20,RRIRERPPRLPRPRPRPSLAPRP,-0.0635
21,RRIRYRPPRLPRPRPRPGEQPRP,0.0237
22,RRIRCRPPRLPRPRPRPETMPRP,-0.0663
23,RRIRWRPPRLPRPRPRPDWCPRP,0.112
24,RRIRGRPPRLPRPRPRPEAVPRP,2.27
25,RRIRIRPPRLPRPRPRPLQYPRP,-0.591

row,Sequence,shrunken log2 fold change
1,RRIRPRPPRLPRPRPRPKNQPRP,-0.108
2,RRIRYRPPRLPRPRPRPSFAPRP,-0.332
3,RRIRLRPPRLPRPRPRPVIAPRP,-0.176
4,RRIRGRPPRLPRPRPRPMQVPRP,0.162
5,RRIRWRPPRLPRPRPRPIIDPRP,0.0788
6,RRIRMRPPRLPRPRPRPDTCPRP,1.25
7,RRIRVRPPRLPRPRPRPCTRPRP,-0.214
8,RRIRHRPPRLPRPRPRPVSEPRP,-0.254
9,RRIRPRPPRLPRPRPRPSELPRP,0.0666
10,RRIRWRPPRLPRPRPRPQREPRP,0.0297
11,RRIRARPPRLPRPRPRPTGGPRP,0.836
12,RRIRMRPPRLPRPRPRPAMTPRP,1.35
13,RRIRGRPPRLPRPRPRPCHYPRP,0.0219
14,RRIRCRPPRLPRPRPRPATYPRP,-0.389
15,RRIRMRPPRLPRPRPRPCAIPRP,-0.216
16,RRIRPRPPRLPRPRPRPWSVPRP,-0.101
17,RRIRWRPPRLPRPRPRPAYGPRP,-0.213
18,RRIRFRPPRLPRPRPRPFHRPRP,-0.0134
19,RRIRFRPPRLPRPRPRPLCTPRP,-0.137
20,RRIRERPPRLPRPRPRPTHWPRP,1.02
21,RRIRPRPPRLPRPRPRPMENPRP,0.127
22,RRIRSRPPRLPRPRPRPIPDPRP,-0.0495
23,RRIRMRPPRLPRPRPRPRWNPRP,0.197
24,RRIRTRPPRLPRPRPRPIAVPRP,-0.213
25,RRIRPRPPRLPRPRPRPHWYPRP,-0.165

row,Sequence,shrunken log2 fold change
1,RRIRYRPPRLPRPRPRPERQPRP,-0.01
2,RRIRLRPPRLPRPRPRPRKPPRP,0.751
3,RRIRLRPPRLPRPRPRPRSWPRP,0.297
4,RRIRGRPPRLPRPRPRPGRNPRP,0.307
5,RRIRQRPPRLPRPRPRPWRYPRP,0.0785
6,RRIRCRPPRLPRPRPRPPNFPRP,-0.0525
7,RRIRERPPRLPRPRPRPVYKPRP,-0.348
8,RRIRTRPPRLPRPRPRPYCFPRP,-0.301
9,RRIRRRPPRLPRPRPRPEQEPRP,0.0308
10,RRIRERPPRLPRPRPRPKEDPRP,0.0193
11,RRIRKRPPRLPRPRPRPKGPPRP,0.828
12,RRIRARPPRLPRPRPRPAIKPRP,0.206
13,RRIRPRPPRLPRPRPRPTRYPRP,0.23
14,RRIRFRPPRLPRPRPRPNEAPRP,-0.0305
15,RRIRSRPPRLPRPRPRPNLQPRP,-0.141
16,RRIRARPPRLPRPRPRPPFQPRP,0.415
17,RRIRRRPPRLPRPRPRPACEPRP,0.192
18,RRIRRRPPRLPRPRPRPDACPRP,0.00716
19,RRIRSRPPRLPRPRPRPGASPRP,0.418
20,RRIRTRPPRLPRPRPRPVQEPRP,0.207
21,RRIRARPPRLPRPRPRPFVCPRP,-0.476
22,RRIRVRPPRLPRPRPRPGVPPRP,0.0752
23,RRIRFRPPRLPRPRPRPFGSPRP,-0.00247
24,RRIRHRPPRLPRPRPRPMGDPRP,-0.0774
25,RRIRRRPPRLPRPRPRPWRPPRP,0.734
